Data taken from PMC3936849 (2014).

Columns and labels:
Experiment in all cases: SPR
[1] = target: T1, BMPRII extracellular domain, C-terminal Fc-tagged chimera (UniProt Q13873 27-150)
T1 chain: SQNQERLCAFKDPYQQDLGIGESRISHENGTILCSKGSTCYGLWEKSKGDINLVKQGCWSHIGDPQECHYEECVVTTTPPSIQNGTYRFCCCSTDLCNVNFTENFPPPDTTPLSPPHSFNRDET

[2] = target: T2, ActRIIb extracellular domain, C-terminal Fc-tagged chimera (UniProt Q13705 19-137)
T2 chain: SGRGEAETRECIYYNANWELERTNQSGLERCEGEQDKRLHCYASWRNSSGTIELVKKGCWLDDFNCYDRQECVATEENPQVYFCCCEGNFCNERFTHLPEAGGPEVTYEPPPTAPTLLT

[3] = target: T3, ActRIIa extracellular domain, C-terminal Fc-tagged chimera (UniProt P27037 20-135)
T3 sequence (P27037 20-135, change not shown): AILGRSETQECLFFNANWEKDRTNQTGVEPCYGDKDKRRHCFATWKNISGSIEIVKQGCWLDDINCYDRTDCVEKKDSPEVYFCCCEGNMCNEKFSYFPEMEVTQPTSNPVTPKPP

[4] = target: T4, ALK1 extracellular domain, C-terminal Fc-tagged chimera (UniProt P37023 22-118)
T4 sequence (P37023 22-118, change not shown): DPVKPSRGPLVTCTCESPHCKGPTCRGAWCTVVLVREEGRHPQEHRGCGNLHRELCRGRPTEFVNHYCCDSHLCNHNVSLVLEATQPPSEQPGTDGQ

[5] = target: T1, BMPRII extracellular domain, C-terminal …
[6] = target: T2, ActRIIb extracellular domain, …
[7] = target: T3, ActRIIa extracellular domain, …; remark: listed apart in the source
[8] = target: T4, ALK1 extracellular domain, C-terminal …; remark: listed apart in the source

Kd [1]: 0.33 nM | Kd [2]: 0.154 nM | Kd [3]: 4.27 nM | Kd [4]: 0.209 nM | koff [5]: 0.00153 s⁻¹ | koff [6]: 0.00152 s⁻¹ | koff [7]: 0.0121 s⁻¹ | koff [8]: 0.000884 s⁻¹
B1: MB109 (E. coli-derived mature domain of human bone morphogenetic protein-9, refolded functional dimer) (ligand)
chain: MSAGAGSHCQKTSLRVNFEDIGWDSWIIAPKEYEAYECKGGCFFPLADDVTPTKHAIVQTLVHLKFPTKVGKACCVPTKLSPISVLYKDDMGVPTLKYHYEGMSVAECGCR
